Experimental data taken from the supplement of paper PMC9170038.

System: MS2 coat protein
Assay: apparent KD of MS2 coat protein; designed switch direction (-1 OFF switch, 1 ON switch): 1; higher = weaker reporter binding
Method in brief: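 RNA switches sharing common flanks were transcribed by stalled E. coli RNA polymerase on Illumina chips. A doubling series of SNAP-549-labelled MS2 coat protein, from 0.7 or 1.5 nM to 3 µM, was applied in Tris-HCl pH 7.5 buffer with KCl, MgCl2, BSA, DTT, tRNA and Tween-20. Each step lasted 0.8–1.5 h at the bottom of the series and 10–20 min at the top. Normalised cluster fluorescence was curve-fitted, giving apparent KD as the per-design median over clusters.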

[1] = input ligand: microRNA oligo, concentration not stated
[2] = Eterna round: R95, input ligand: FMN 200 uM
[3] = Eterna round: R95, input ligand: microRNA oligo, concentration not stated
[4] = Eterna round: R95, input ligand: none

| Sequence | apparent KD of MS2 coat protein (input ligand: FMN 200 uM) [nM] | apparent KD of MS2 coat protein [1] [nM] | apparent KD of MS2 coat protein (input ligand: none) [nM] | apparent KD of MS2 coat protein [2] [nM] | apparent KD of MS2 coat protein [3] [nM] | apparent KD of MS2 coat protein [4] [nM] |
| --- | --- | --- | --- | --- | --- | --- |
| CAUCGUUUGAUAGGAUAUCGCUAUACAUGAGGAUCACCCAUGUUUACCACGCUGGUUUUUCAUACCGAGAAGGAUUCUGAUGAC [salish99_SSNG02_r04_014] (Eterna round: R96, puzzle: Same State NG 2) | 27.3 | 27.7 | 30.2 |  |  |  |
| CCAACGUACAAUUUAGAUCUACAUGAGGAUCACCCAUGUACGGAGGAUAUCAGCUCGAUUAGAGCUGAGAAGGCCGAAUUAAUU [SSNG3/2-A2] (Eterna round: R96, puzzle: Same State NG 3) | 65.7 | 119 | 430 |  |  |  |
| CCAAUGUACAAUUUAGAUCUACAUGAGGAUCACCCAUGUACAGAGGAUAUCAGCUCGUUUAGAGCUGAGAAGGCUGAAUUAAUU [SSNG3/3-A3] (Eterna round: R96, puzzle: Same State NG 3) | 111 | 139 | 327 |  |  |  |
| CCCUCACAUGAGGAUCACCCAUGUCCUAGCAGGUCAGGAUAUAGCCCGCAUCCGCUGCGGCUAGAAGGGACAGCUG [JR_SS001_Sub610] (Eterna round: R96, puzzle: Same State 1) | 148 | 135 | 176 |  |  |  |
| CCGAUGCUUAUAAACAUGAGGAUCACCCAUGUGAGGACACAUGAGGAUAUGCAGGUCAAAGACUUGCAGAAGGCAUAGCGUCGG [JL SSNG3 3.89] (Eterna round: R96, puzzle: Same State NG 3) | 40.7 | 158 | 305 |  |  |  |
| CCGUAGAUGGUAGGAUAUGGAGCCUUAUUGGCUCCAGAAGGAUCGAAAACAUGAGGAUCACCCAUGUCGGCGGUCAAUAGACCG [Eli NG1ss - 84] (Eterna round: R96, puzzle: Same State NG 1) | 21.8 | 43.1 | 34.1 |  |  |  |
| CGAUGAAACUAAGGAAGAAGAGUUGAAGUACAUGAGGAUCACCCAUGUCAGAGCUUUUUGCUCGUCAUGAACAGGAA [JR_SHM208a_Sub005] (puzzle: Sensor for hsa-mir-208a) |  |  |  | 51.9 | 32.2 | 52.8 |
| CGCAAAGUGUGAGGAUAUUCACACAUGAGGAUCACCCAUGUGACGGUUCCGGCCAGAGGAGAGCAGGAGAAGGCACAACGCGAG [Eternabot solution 5] (Eterna round: R96, puzzle: Same State NG 2) | 36.1 | 101 | 120 |  |  |  |
| CGCAGGCACGUAGGAUAUCUAGCGUGGGAGGCUAGAGAAGGAUGGAAUAACAUGAGGAUCACCCAUGUCGCCUCGCGGAAAUAA [Diorverire] (Eterna round: R96, puzzle: Same State NG 1) | 15.5 | 17.4 | 32.8 |  |  |  |
| CGGAAAAUCGUAGGAUAUCUAGGAUAUGAACGAGGAUCACCCGAGCAGCAUCAGCGCAUCAGAGGAGAGAAGGACGAUGAUGCG [pwkr ssNG2 2F5 2FMN.5] (Eterna round: R96, puzzle: Same State NG 2) | 1930 | 1100 | 1510 |  |  |  |
| CGGGUAAUCGUAGGAUAUCUAGGAUAUGAACGAGGAUCACCCGAGCAGCAUCAGCGCAUCAGAGGAGAGAAGGACGAUGAUGCG [pwkr ssNG2 2F5 2FMN.18] (Eterna round: R96, puzzle: Same State NG 2) | 164 | 199 | 470 |  |  |  |
| CGGGUGAUCGUAGGAUAUCUAGGAUAUGAACGAGGAUCACCCGAGCAGCAUCAGCGCAUCAGAGGAGAGAAGGACGAUGAUGCG [pwkr ssNG2 2F5 2FMN.19] (Eterna round: R96, puzzle: Same State NG 2) | 20.5 | 21.7 | 34 |  |  |  |
| CGGGUGGUUCUAGGAUAUCUAGGAUAUGGACGAGGAUUACCCGAGCAGCAUCAGCGCACCAGAGGAGAGAAGGAGAGUCAUGCG [pwkr ssNG2 2F5 2FMN.9] (Eterna round: R96, puzzle: Same State NG 2) | 105 | 72.5 | 86.8 |  |  |  |
| CGUCCAGCCUGAGCUGGACAAAAGCAUGUACAUGAGGAUCACCCAUGUUCAUGUACAAGCUUUUUGCUCGUCUUACU [salish99_208a_r3_092x] (puzzle: Sensor for hsa-mir-208a) |  |  |  | 590 | 15.7 | 793 |
| CUAUCUACAGGUGUCAUUGCUCGUCUUAUACAUGAGGAUCACCCAUGUUAUAGCCCGGUGCUUGCGCUGGGCUGAUU [JL ViennaUCT Tearor mod 5] (puzzle: Sensor for hsa-mir-208a) |  |  |  | 114 | 15.5 | 99.9 |
| CUCAAAACAAGUUGCAGUGUUCGUCUUUAACAUGAGGAUCACCCAUGUAAUAGCCUGGUGGAAGCGCUCGGGCCACC [Qurabila] (puzzle: Sensor for hsa-mir-208a) |  |  |  | 23.4 | 15.6 | 25.1 |
| CUCAACAACACAGGAUAUCCAGGGAAAAGACCUGGAGAAGGGUGACCAACAUGAGGAUCACCCAUGUGACGGCUAGACCGUCUG [Isquce] (Eterna round: R96, puzzle: Same State NG 1) | 593 | 24 | 249 |  |  |  |
| CUGAGCGAUCAAGGAUAUCACGUCGAUUAGACGUGAGAAGGUGAUCAUAACAUGAGGAUCACCCAUGUAUUACAUGAAGCUCAG [SSNG1/2-A2] (Eterna round: R96, puzzle: Same State NG 1) | 386 | 146 | 1620 |  |  |  |
| CUGAGGAAGAGAGAGGAUAUCCAAAGGAAAACAUGAGGAUCACCCAUGUAAAAGGUAGGAAAUUGGGAGAAGGCUCAAGAGAGAG [salish99-ss2-068] (Eterna round: R96, puzzle: Same State 2) | 32.3 | 38.3 | 39.3 |  |  |  |
| CUGAGGUGUCAAGGAUAUGCUACCGUUUCGGUAGCAGAAGGUGAUCACAUGAGGAUCACCCAUGUAUGCAUGCGUGAGCGUGCU [JL SSNG1 3.60] (Eterna round: R96, puzzle: Same State NG 1) |  | 17.8 |  |  |  |  |
| CUGUAUCGCGGAGGAUAUGGGCUGAGACCAGGGCAACCCUGGUCAACAUGAGGAUCACCCAUGUCCCAGAAGGCCGCGAUGCUA [Diaraenve] (Eterna round: R96, puzzle: Same State NG 2) | 19.7 | 73.6 | 113 |  |  |  |
| CUUUUUAGUGCAGGAUAUGAUCAACAUGAGGAUCACCCAUGUGGCGUUGUGAGUAGGGAGAGUGAUCAGAAGGGCGUCUCCGCG [SS-NG2-LRO11] (Eterna round: R96, puzzle: Same State NG 2) | 72 | 36.1 | 59.9 |  |  |  |
| GAAAAGACAUGAGGAUCACCCAUGUGAAAGCCUAAGGGCCCACAGGAUAUACAGUGAAAAGCACUGUAGAAGGGUGAUAAAGAC [Ordibidi] (Eterna round: R96, puzzle: Same State NG 3) | 228 | 271 | 172 |  |  |  |
